Assay results reported in patent US12144869B2, “Anti-ROR1 antibody conjugates, compositions comprising anti ROR1 antibody conjugates, and methods of making and using anti-ROR1 antibody conjugates” (Sutro Biopharma, Inc., priority 2022, dated 2024).

Assays:
[1] = target: T1, hROR1 (ROR1-extracellular domain) (Homo sapiens, UniProt Q01973); test: Biacore off-rate and kinetic analysis, hROR1 extracellular domain; assay type: binding; details: Table 7; sample ROR1 ECD; 1987-C05 HC with different LCs
T1 construct: the ROR1-frizzled domain (hROR1-Fz) or the ROR1-extracellular domain (hROR1); purchased Acro Biosystems
Protocol: (§1) Anti-Fc polyclonal antibodies were immobilized onto a CMS chip (GE Life Sciences) using amine coupling chemistry (from Amine Coupling Kit, GE Life Sciences). The immobilization steps were carried out at a flow rate of 25 μL/min in 1×HBS-EP+buffer (GE Life Sciences; 10× Stock diluted before use). The sensor surfaces were activated for 7 min with a mixture of NHS (0.05 M) and EDC (0.2 M). The Anti-Fc antibodies were injected over all 4 flow cells at a concentration of 25 ug/ml in 10 mM sodium acetate, pH 4.5, for 7 min. Ethanolamine (1 M, pH 8.5) was injected for 7 min to block any remaining activated groups. An average of 12,000 response units (RU) of capture antibody was immobilized on each flow cell.
(§2) Off-rate and kinetic binding experiments were performed at 25° C. using 1×HBS-EP+buffer. Test and control antibodies were injected over the anti-Fc surface at concentrations of 5-10 μg/mL for 12 seconds at a flow rate of 10 μL/min on flow cells 2, 3 and 4, followed by a buffer wash for 30 seconds at the same flow rate. Kinetic characterization of antibody samples was carried out with a range of antigen concentrations from 1-100 nM and 1 injection of 0 nM antigen (for example, 100, 50, 25, 6.25, 1.56 and 0 nM). After capturing ligand (antibody) on the anti-Fc surface, the analyte (hROR1, Fz or Kr domains, Acro Biosystems, Delaware) was bound for 180 seconds, followed by a 600 second dissociation phase at a flow rate of 50 μL/min. Between each ligand capture and analyte binding cycle, regeneration was carried out using 2 injections of 10 mM Glycine pH 2.0 for 30 seconds at 30 μL/min, followed by a 30 second buffer wash step.
(§3) The data was fit with the Biacore T200 Evaluation software, using a 1-1 Langmuir binding model. KD (affinity, nM) was determined as a ratio of the kinetic rate constants calculated from the fits of the association and dissociation phases.
(§4) For anti-CD3-LC-containing IgGs that had detectable ROR1-binding in ELISA (1944-A07 and 1987-C05 variants), those antibodies were further tested for binding by surface plasmon resonance (SPR). Binding kinetics were assessed to the ROR1-frizzled domain (hROR1-Fz) or the ROR1-extracellular domain (hROR1) for 1944-A07 and 1987-C05 variants, respectively. Briefly, anti-ROR1 antibodies were captured via anti-human Fc polyclonal antibodies immobilized to a CM5 chip, and ROR1 recombinant proteins were flowed across the surface to assess binding kinetics. hROR1 or hROR1-Fz domain (Acro Biosystems, Delaware) binding was tested at 100, 50, 25, 6.25, 1.5625 nM. The data was fit with the Biacore™ T200 Evaluation software, using a 1-1 Langmuir binding model. KD (affinity, nM) was determined as a ratio of the kinetic rate constants calculated from the fits of the association and dissociation phases.

[2] = Differential scanning fluorimetry (protein thermal shift; TM1/TM2); assay type: physicochemical; details: Table 11; melting temperature of the Fab domain
Protocol: A protein thermal shift assay was carried out by mixing the protein to be assayed with an environmentally sensitive dye (SYPRO Orange, Life Technologies Cat #S-6650) in a phosphate buffered solution (PBS), and monitoring the fluorescence of the mixture in real time as it underwent controlled thermal denaturation. Protein solutions between 0.2-2 mg/mL were mixed at a 1-1 volumetric ratio with a 1-500 PBS-diluted solution of SYPRO Orange (SYPRO Orange stock dye is 5000× in DMSO). 10 μL aliquots of the protein-dye mixture were dispensed in quadruplicate in a 384-well microplate (Bio-Rad Cat #MSP-3852), and the plate was sealed with an optically clear sealing film (Bio-Rad Cat #MSB-1001) and placed in a 384-well plate real-time thermocycler (Bio-Rad CFX384 Real Time System). The protein-dye mixture was heated from […], at increments of 0.1° C. per cycle (˜1.5° C. per minute), allowing 3 seconds of equilibration at each temperature before taking a fluorescence measurement. At the end of the experiment, the transition melting temperatures (TM1 and TM2) were determined using the Bio-Rad CFX manager software. TM1 represents the melting temperature of the Fc domain. TM2 represents the melting temperature of the Fab domain.
For the thermal stability of an antibody, the first melting peak (Tm1) coincides with the unfolding of the CH2 domain (FC stability), while the second melting peak (Tm2) occurs upon unfolding of the Fab domain.

ROR1 or ROR2 = test: ROR2 cross-reactivity ELISA (ROR1/ROR2 signal ratio); assay type: binding; details: Table 11; SP34 light chain
Protocol: Antibodies were tested for their ability to bind to either ROR1 or ROR2 via ELISA. Briefly, 2 μg/mL of ROR1 or ROR2 (Acro Biosystems) were coated to 384-well polystyrene plates for 1 hr at 30° C. in 0.1 M bicarbonate pH8.9 buffer before they were washed and blocked with 2% BSA in PBST (PBS, 0.1% Tween20) for 1 hr. Antibody variants were diluted to 2.5 μg/mL and further serially diluted 3-fold before 30 μL was applied to the ELISA plates for binding (1 hr at 30° C.). Antibody binding was detected via HRP-conjugated anti-human Fc antibodies (Jackson Immunoresearch) and detection with SuperSignal ELISA Pico Chemiluminescent Substrate (Pierce). Cross-reactivity was reported as a ratio of ROR1-ELISA signal over ROR2-ELISA signal at the highest dilution tested.

human ROR1-Fz = target: T2, human ROR1-Fz (Homo sapiens, UniProt Q01973); test: Biacore off-rate and kinetic analysis, ROR1-Fz; assay type: binding; details: Table 11; SP34 light chain
T2 construct: Frizzled (Fz, residues 165-305); His6 (C); purchased Acro Biosystems; host or cells: HEK293
Protocol: as §1, §2, §3, §4

B1: 1987-C05 HC w/hUCHT1 LC3: HC of lead antibody 1987-C05 co-expressed with the LC of anti-CD3 antibody "hUCHT1-LC3" (antibody, V domains shown)
VH: EVQLVESGGGLVQPGGSLRLSCAASGFNISDYDIHWVRQAPGKGLEWVGGIDPDDGSTDYADSVKGRFTISADTSKNTAYLQMNSLRAEDTAVYYCARDYGVFDYWGQGTLVTVSS
VL: DIQMTQSPSTLSASVGDRVTITCRASQDIRNYLNWYQQKPGKAPKLLIYYTSRLHSGVPSRFSGSGSGTEYTLTISSLQPDDFATYYCQQGNTLPWTFGGGTKVEIK
- ka1 [1]: 566000 M⁻¹ s⁻¹
- kd1 [1]: 0.000645 s⁻¹

B2: SRP2196-A07 (antibody, V domains shown)
VH: EVQLVESGGGLVQPGGSLRLSCAASGFNITGYYIHWVRQAPGKGLEWVGQISPNSGSTYYADSVKGRFTISADTSKNTAYLQMSSLRAEDTAVYYCARDSRRYVRGWDYWGQGTLVTVSS
VL: QAVVTQESALTTSPGETVTLTCRSSTGAVTTSNYANWVQEKPDHLFTGLIGGTNKRAPGVPARFSGSLIGDKAALTITGAQTEDEAIYFCALWYSNLWVFGGGTKLTVL
- TM2 (° C.) [2]: 74 °C
- ROR1/ROR2 ELISA ratio (ROR1 or ROR2): 16.3
- Biacore human ROR1-Fz ka (human ROR1-Fz): 186000 M⁻¹ s⁻¹
- Biacore human ROR1-Fz kd (human ROR1-Fz): 0.00064 s⁻¹

B3: SRP2196-B11 (antibody, V domains shown)
VH: EVQLVESGGGLVQPGGSLRLSCAASGFNITGYYIHWVRQAPGRGLEWVGQISPNSGYTYYADSVKGRFTISADTSKNTAYLQMNSLRAEDTAVYYCARDSRRYIRSWDYWGQGTLVTVSS
VL: QAVVTQESALTTSPGETVTLTCRSSTGAVTTSNYANWVQEKPDHLFTGLIGGTNKRAPGVPARFSGSLIGDKAALTITGAQTEDEAIYFCALWYSNLWVFGGGTKLTVL
- TM2 (° C.) [2]: 74 °C
- ROR1/ROR2 ELISA ratio (ROR1 or ROR2): 19.1
- Biacore human ROR1-Fz ka (human ROR1-Fz): 137000 M⁻¹ s⁻¹
- Biacore human ROR1-Fz kd (human ROR1-Fz): 0.000597 s⁻¹

B4: SRP2196-B01 (antibody, V domains shown)
VH: EVQLVESGGGLVQPGGSLRLSCAASGFNITGYYIHWVRQAPGKGLEWVGQISPNSGYTYYADSVKGRFTISADTSKNTTYLQMNSLRAEDTAVYYCARDSRRYVRSWDYWGQGTLVTVSS
VL: QAVVTQESALTTSPGETVTLTCRSSTGAVTTSNYANWVQEKPDHLFTGLIGGTNKRAPGVPARFSGSLIGDKAALTITGAQTEDEAIYFCALWYSNLWVFGGGTKLTVL
- TM2 (° C.) [2]: 75 °C
- ROR1/ROR2 ELISA ratio (ROR1 or ROR2): 17.2
- Biacore human ROR1-Fz ka (human ROR1-Fz): 131000 M⁻¹ s⁻¹
- Biacore human ROR1-Fz kd (human ROR1-Fz): 0.000401 s⁻¹

B5: SRP2196-B03 (antibody, V domains shown)
VH: EVQLVESGGGLAQPGGSLRLSCAASGFNITGYYIHWVRQAPGKGLEWVGYISPNSGATHYADSVKGRFTISADTSKNTAYLQMNSLRAEDTAVYYCARDSRRYVRPFDYWGQGTLVTVSS
VL: QAVVTQESALTTSPGETVTLTCRSSTGAVTTSNYANWVQEKPDHLFTGLIGGTNKRAPGVPARFSGSLIGDKAALTITGAQTEDEAIYFCALWYSNLWVFGGGTKLTVL
- TM2 (° C.) [2]: 71 °C
- ROR1/ROR2 ELISA ratio (ROR1 or ROR2): 22.8
- Biacore human ROR1-Fz ka (human ROR1-Fz): 124000 M⁻¹ s⁻¹
- Biacore human ROR1-Fz kd (human ROR1-Fz): 0.000945 s⁻¹

B6: SRP2196-A09 (antibody, V domains shown)
VH: EVQLVESGGGLVQPGGSLRLSCAASGFNITGYYIHWVRQAPGKGLEWVGQISPNSGATHYADSVKGRFTISADTSKNTAYLQMNSLRAEDTAVYYCARDSRRYIRSWDYWGQGTLVTVSS
VL: QAVVTQESALTTSPGETVTLTCRSSTGAVTTSNYANWVQEKPDHLFTGLIGGTNKRAPGVPARFSGSLIGDKAALTITGAQTEDEAIYFCALWYSNLWVFGGGTKLTVL
- TM2 (° C.) [2]: 75 °C
- ROR1/ROR2 ELISA ratio (ROR1 or ROR2): 20.1
- Biacore human ROR1-Fz ka (human ROR1-Fz): 150000 M⁻¹ s⁻¹
- Biacore human ROR1-Fz kd (human ROR1-Fz): 0.000568 s⁻¹

B7: SRP2196-B09 (antibody, V domains shown)
VH: EVQLVESGGGLVQPEGSLRLSCAASGFNITEYYIHWVRQAPGKGLEWVGYISPNSGSTYYADSVKGRFTISADTSKNTAYLQMNSLRAEDTAVYYCARDSRRYVRSWDYWGQGTLVTVSS
VL: QAVVTQESALTTSPGETVTLTCRSSTGAVTTSNYANWVQEKPDHLFTGLIGGTNKRAPGVPARFSGSLIGDKAALTITGAQTEDEAIYFCALWYSNLWVFGGGTKLTVL
- TM2 (° C.) [2]: 72 °C
- ROR1/ROR2 ELISA ratio (ROR1 or ROR2): 27.3
- Biacore human ROR1-Fz ka (human ROR1-Fz): 130000 M⁻¹ s⁻¹
- Biacore human ROR1-Fz kd (human ROR1-Fz): 0.000427 s⁻¹
